Assay results from paper PMC9130890 (2022).

Target: autologous SHIV_(1157ipd3N4) gp120 monomer (SHIV_(1157ipd3N4))
Test: BLI

B1: unmutated common ancestor (UCA) of the J038 lineage (antibody, V domains shown)
VH: QLQLQESGPGLVKPSETLSLTCAVSGGSISSNYWSWIRQPPGKGLEWIGRISGSGGSTDYNPSLKSRVTISTDTSKNQFSLKLSSVTAADTAVYYCAREVAEDDYGYYQPYFDYWGQGVLVTVSS
VL: DIQMTQSPSSLSASVGDRVTITCRASQGISSYLAWYQQKPGKAPKLLIYAASSLQSGVPSRFSGSGSGTDFTLTISSLQPEDFATYYCQQYNSLPLTFGGGTKVEIK
- Kd: 37.8 nM
- koff: 0.0023 s⁻¹
